Residue numbers refer to the chain shown, from its start.
B1: IgG1-F553 (antibody)
heavy: QVQLQESGPGLVKPSETLSLTCAVSGHSISHDHAWSWVRQPPGEGLEWIGFISYSGITNYNPSLQGRVTISRDNSKNTLYLQMNSLRAEDTAVYYCARSLARTTAMDYWGEGTLVTVSSASTKGPSVFPLAPSSKSTSGGTAALGCLVKDYFPEPVTVSWNSGALTSGVHTFPAVLQSSGLYSLSSVVTVPSSSLGTQTYICNVNHKPSNTKVDKKVEPKSCDKTHTCPPCPAPELLGGPSVFLFPPKPKDTLYISRTPEVTCVVVDVSHEDPEVKFNWYVDGVEVHNAKTKPREEQYNSTYRVVSVLTVLHADWLNGKEYKCKVSNKALPAPIEKTISKAKGQPREPQVYTLPPSRDELTKNQVSLTCLVKGFYPSDIAVEWESNGQPENNYKTTPPVLDSDGSFFLYSKLTVDKSRWQQGNVFSCSVMHEALHYHYTQKSLSLSP
light: not shown
notes: EU numbering; copies: 2 + 2
B2: IgG1-F568 (antibody)
heavy: B1 heavy with T258E, T309A, A313H
light: not shown
notes: EU numbering; copies: 2 + 2
B3: IgG1-F601 (antibody)
heavy: B1 heavy with N288E, V310P, A313Q
light: not shown
notes: EU numbering; copies: 2 + 2
B4: IgG1-F576 (antibody)
heavy: B1 heavy with T258E, T309Q, A313H, Y436N
light: not shown
notes: EU numbering; copies: 2 + 2
B5: IgG1-F587 (antibody)
heavy: B1 heavy with N288E, A313Q, M430L
light: not shown
notes: EU numbering; copies: 2 + 2
B6: IgG1-F571 (antibody)
heavy: B1 heavy with N288E, T309A, A313H
light: not shown
notes: EU numbering; copies: 2 + 2
B7: IgG1-F624 (antibody)
heavy: B1 heavy with S241K, Y254M, P259A, N288E, T309Q, A313Q, M430L
light: not shown
notes: EU numbering; copies: 2 + 2
B8: IgG1-F620 (antibody)
heavy: B1 heavy with S241K, S256T, A313Q
light: not shown
notes: EU numbering; copies: 2 + 2
B9: IgG1-F585 (antibody)
heavy: B1 heavy with S241K, N288E, V310P, A313Q, Y436N
light: not shown
notes: EU numbering; copies: 2 + 2
B10: IgG1-F584 (antibody)
heavy: B1 heavy with S241K, T258E, V310P, A313Q, Y436N
light: not shown
notes: EU numbering; copies: 2 + 2
B11: IgG1-F641 (antibody)
heavy: B1 heavy with V310P, A313Q, Q388K
light: not shown
notes: EU numbering; copies: 2 + 2
B12: IgG1-F637 (antibody)
heavy: B1 heavy with K290S, V310P, A313Q
light: not shown
notes: EU numbering; copies: 2 + 2
B13: IgG1-F593 (antibody)
heavy: B1 heavy with S241K, S256T, V310P, A313Q, M430I
light: not shown
notes: EU numbering; copies: 2 + 2
B14: IgG1-F611 (antibody)
heavy: B1 heavy with V307T, T309P, V310I, L311A, A313Q
light: not shown
notes: EU numbering; copies: 2 + 2
B15: IgG1-F623 (antibody)
heavy: B1 heavy with S241K, Y254W, A313Q, Y436W
light: not shown
notes: EU numbering; copies: 2 + 2
B16: IgG1-F569 (antibody)
heavy: B1 heavy with T258Q, T309A, A313H
light: not shown
notes: EU numbering; copies: 2 + 2
B17: IgG1-F636 (antibody)
heavy: B1 heavy with S241K, V286K, V310P, A313Q
light: not shown
notes: EU numbering; copies: 2 + 2
B18: IgG1-F594 (antibody)
heavy: B1 heavy with S241K, T258E, V310P, A313Q, M430I
light: not shown
notes: EU numbering; copies: 2 + 2
B19: IgG1-F642 (antibody)
heavy: B1 heavy with S241K, V310P, A313Q, Q388K
light: not shown
notes: EU numbering; copies: 2 + 2
B20: IgG1-F621 (antibody)
heavy: B1 heavy with S241K, T309A, A313H
light: not shown
notes: EU numbering; copies: 2 + 2
B21: IgG1-F600 (antibody)
heavy: B1 heavy with T258Q, A313Q, E384A
light: not shown
notes: EU numbering; copies: 2 + 2
B22: IgG1-F619 (antibody)
heavy: B1 heavy with S241K, A313Q
light: not shown
notes: EU numbering; copies: 2 + 2
B23: IgG1-F565 (antibody)
heavy: B1 heavy with S256T, T309A
light: not shown
notes: EU numbering; copies: 2 + 2
B24: IgG1-F586 (antibody)
heavy: B1 heavy with S241K, N288E, V310P, A313Q, M430I, Y436N
light: not shown
notes: EU numbering; copies: 2 + 2
B25: IgG1-F633 (antibody)
heavy: B1 heavy with V284D, V310P, A313Q
light: not shown
notes: EU numbering; copies: 2 + 2
B26: IgG1-F598 (antibody)
heavy: B1 heavy with A313Q, D314A, P389E
light: not shown
notes: EU numbering; copies: 2 + 2
B27: IgG1-F561 (antibody)
heavy: B1 heavy with S256T, T309A, A313Q
light: not shown
notes: EU numbering; copies: 2 + 2
B28: IgG1-F639 (antibody)
heavy: B1 heavy with V310P, A313Q, G387R
light: not shown
notes: EU numbering; copies: 2 + 2
B29: IgG1-F562 (antibody)
heavy: B1 heavy with S256T, T309Q, A313Q
light: not shown
notes: EU numbering; copies: 2 + 2
B30: IgG1-F612 (antibody)
heavy: B1 heavy with T309P, V310I, L311A, A313Q
light: not shown
notes: EU numbering; copies: 2 + 2
B31: IgG1-F570 (antibody)
heavy: B1 heavy with S256T, T309A, A313H
light: not shown
notes: EU numbering; copies: 2 + 2
B32: IgG1-F560 (antibody)
heavy: B1 heavy with S256T, V310P, A313Q
light: not shown
notes: EU numbering; copies: 2 + 2
B33: IgG1-F581 (antibody)
heavy: B1 heavy with T258E, N288E, A313Q
light: not shown
notes: EU numbering; copies: 2 + 2
B34: IgG1-F556 (antibody)
heavy: B1 heavy with T309Q, Y436N
light: not shown
notes: EU numbering; copies: 2 + 2
B35: IgG1-F564 (antibody)
heavy: B1 heavy with S256T, A313H
light: not shown
notes: EU numbering; copies: 2 + 2
B36: IgG1-F630 (antibody)
heavy: B1 heavy with S241K, V281L, V310P, A313Q
light: not shown
notes: EU numbering; copies: 2 + 2
B37: IgG1-F582 (antibody)
heavy: B1 heavy with S241K, V310P, A313Q, Y436N
light: not shown
notes: EU numbering; copies: 2 + 2
B38: IgG1-F634 (antibody)
heavy: B1 heavy with S241K, V284D, V310P, A313Q
light: not shown
notes: EU numbering; copies: 2 + 2
B39: IgG1-F580 (antibody)
heavy: B1 heavy with N288E, T309Q, A313H, Y436N
light: not shown
notes: EU numbering; copies: 2 + 2
B40: IgG1-F643 (antibody)
heavy: B1 heavy with L237G, G238R, S241K, V310P, A313Q
light: not shown
notes: EU numbering; copies: 2 + 2
B41: IgG1-F597 (antibody)
heavy: B1 heavy with A313Q, E384A, P389E
light: not shown
notes: EU numbering; copies: 2 + 2
B42: IgG1-F567 (antibody)
heavy: B1 heavy with S256T, A313Q, M430I
light: not shown
notes: EU numbering; copies: 2 + 2
B43: IgG1-F578 (antibody)
heavy: B1 heavy with N288E, T309Q, Y436N
light: not shown
notes: EU numbering; copies: 2 + 2
B44: IgG1-F599 (antibody)
heavy: B1 heavy with A313Q, P389E, M430Y
light: not shown
notes: EU numbering; copies: 2 + 2
B45: IgG1-F629 (antibody)
heavy: B1 heavy with V281L, V310P, A313Q
light: not shown
notes: EU numbering; copies: 2 + 2
B46: IgG1-F592 (antibody)
heavy: B1 heavy with S256T, A313Q, E384A
light: not shown
notes: EU numbering; copies: 2 + 2
B47: IgG1-F583 (antibody)
heavy: B1 heavy with S241K, V310P, A313Q, E384A, Y436N
light: not shown
notes: EU numbering; copies: 2 + 2
B48: IgG1-F596 (antibody)
heavy: B1 heavy with A313Q, D314A, E384A, M430Y
light: not shown
notes: EU numbering; copies: 2 + 2
B49: IgG1-F635 (antibody)
heavy: B1 heavy with V286K, V310P, A313Q
light: not shown
notes: EU numbering; copies: 2 + 2
B50: IgG1-F559 (antibody)
heavy: B1 heavy with S256T, N288E, A313Q
light: not shown
notes: EU numbering; copies: 2 + 2
B51: IgG1-F625 (antibody)
heavy: B1 heavy with S241K, Y254M, P259A, T309Q, A313Q, M430L
light: not shown
notes: EU numbering; copies: 2 + 2
B52: IgG1-F577 (antibody)
heavy: B1 heavy with N288E, T309A, Y436N
light: not shown
notes: EU numbering; copies: 2 + 2
B53: IgG1-F618 (antibody)
heavy: B1 heavy with S241K, Y254M, V310F, A313Q
light: not shown
notes: EU numbering; copies: 2 + 2
B54: IgG1-F572 (antibody)
heavy: B1 heavy with T309A, A313H, M430I
light: not shown
notes: EU numbering; copies: 2 + 2
B55: IgG1-F566 (antibody)
heavy: B1 heavy with S256T, T309Q
light: not shown
notes: EU numbering; copies: 2 + 2
B56: IgG1-F640 (antibody)
heavy: B1 heavy with S241K, V310P, A313Q, G387R
light: not shown
notes: EU numbering; copies: 2 + 2
B57: IgG1-F622 (antibody)
heavy: B1 heavy with S241K, T258Q, A313Q
light: not shown
notes: EU numbering; copies: 2 + 2
B58: IgG1-F595 (antibody)
heavy: B1 heavy with S241K, A313Q, M430I
light: not shown
notes: EU numbering; copies: 2 + 2
B59: IgG1-F638 (antibody)
heavy: B1 heavy with S241K, K290S, V310P, A313Q
light: not shown
notes: EU numbering; copies: 2 + 2
B60: IgG1-F563 (antibody)
heavy: B1 heavy with S256T
light: not shown
notes: EU numbering; copies: 2 + 2

molecular target: T1, human FcRn (soluble human FcRn complexed with β2-microglobulin) (human, UniProt P61769 21-119, limits assumed); test: SPR, pH 7.0;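 also: antibodies captured on a Protein L sensor chip with human FcRn injected as analyte, KD calculated from fitted association and dissociation rate constants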
T1 construct: also called hFcRn
T1 sequence (chain, as listed by the source limits assumed, chain 1 of 2): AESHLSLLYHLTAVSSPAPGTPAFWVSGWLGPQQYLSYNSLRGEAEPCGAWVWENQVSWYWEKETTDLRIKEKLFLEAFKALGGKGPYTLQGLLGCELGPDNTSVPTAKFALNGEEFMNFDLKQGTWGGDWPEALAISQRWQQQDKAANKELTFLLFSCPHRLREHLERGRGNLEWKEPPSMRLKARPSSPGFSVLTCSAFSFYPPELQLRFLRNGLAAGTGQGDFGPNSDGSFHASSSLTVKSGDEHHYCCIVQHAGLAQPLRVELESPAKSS
T1 sequence (P61769 21-119 limits assumed, chain 2 of 2): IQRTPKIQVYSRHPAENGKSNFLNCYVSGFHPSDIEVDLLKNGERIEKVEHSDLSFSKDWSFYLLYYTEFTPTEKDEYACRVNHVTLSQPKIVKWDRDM

First: B1
Second: B2
The Kd of the first is 1.5-fold higher: 170 nM for the first, 110 nM for the second. The second binds more tightly here.

Compared with B3, B4 is 170-fold higher in Kd: 9.6 nM for the first, 1600 nM for the second.

Going from B5 to B6, the Kd falls from 190 nM to 81 nM (2.3-fold).

Going from B7 to B8, the Kd rises from 14 nM to 210 nM (15-fold). The first binds more tightly here.

Compared with B9, B10 is 2.2-fold higher in Kd: 290 nM for the first, 630 nM for the second. The first binds more tightly here.

Going from B11 to B12, the Kd rises from 30 nM to 150 nM (5-fold).

Compared with B13, B14 is 9-fold higher in Kd: 31 nM for the first, 280 nM for the second. The first binds more tightly here.

B15 and B16 are within 1.5-fold of each other in Kd: 180 nM for the first, 200 nM for the second.

Going from B17 to B18, the Kd falls from 48 nM to 16 nM (3-fold).

First: B19
Second: B20
The Kd of the first is 5-fold lower: 30 nM for the first, 150 nM for the second.

B21 and B22 are within 1.5-fold of each other in Kd: 280 nM for the first, 310 nM for the second.

Going from B23 to B24, the Kd rises from 92 nM to 140 nM (1.5-fold).

First: B25
Second: B26
The Kd of the first is 5.8-fold lower: 24 nM for the first, 140 nM for the second.

First: B27
Second: B28
The Kd of the first is 5.2-fold higher: 140 nM for the first, 27 nM for the second. The second binds more tightly here.

Going from B29 to B30, the Kd rises from 83 nM to 360 nM (4.3-fold). The first binds more tightly here.

First: B31
Second: B32
The Kd of the first is 4.6-fold higher: 130 nM for the first, 28 nM for the second. The second binds more tightly here.

First: B33
Second: B34
The Kd of the first is 21-fold lower: 72 nM for the first, 1500 nM for the second. The first binds more tightly here.

Compared with B35, B36 is 5.1-fold lower in Kd: 190 nM for the first, 37 nM for the second.

Going from B37 to B38, the Kd falls from 750 nM to 32 nM (23-fold). The second binds more tightly here.

Compared with B39, B40 is 27-fold lower in Kd: 860 nM for the first, 32 nM for the second. The second binds more tightly here.

B41 and B42 are the same in Kd: 220 nM for the first, 220 nM for the second.

B43 and B44 are within 1.5-fold of each other in Kd: 570 nM for the first, 520 nM for the second.

Going from B45 to B46, the Kd rises from 39 nM to 200 nM (5.1-fold).

First: B47
Second: B48
The Kd of the first is 1.9-fold higher: 780 nM for the first, 400 nM for the second.

First: B49
Second: B50
The Kd of the first is 1.8-fold lower: 45 nM for the first, 80 nM for the second.

First: B51
Second: B52
The Kd of the first is 17-fold lower: 76 nM for the first, 1300 nM for the second.

First: B53
Second: B54
The Kd of the first is 6.4-fold higher: 640 nM for the first, 100 nM for the second. The second binds more tightly here.

Going from B55 to B56, the Kd falls from 61 nM to 36 nM (1.7-fold).

Going from B57 to B58, the Kd falls from 350 nM to 180 nM (1.9-fold).

B59 and B60 are within 1.5-fold of each other in Kd: 140 nM for the first, 130 nM for the second.
